Measured values published in patent publication US6685932.

Tests used:
[1] = molecular target: T1, extracellular domain of the IL-4Rα (IL-4 binding protein), P24394; experiment: biosensor (BIA2000), IL4BP on a streptavidin matrix, room temperature
[2] = molecular target: T1, extracellular domain of the IL-4Rα …; experiment: biosensor (BIA2000), IL4BP biotinylated at Cys-206 on a streptavidin matrix, 25 C
[3] = molecular target: T1, extracellular domain of the IL-4Rα …; experiment: biosensor (BIA2000), compared with MAR-IL4

T1 sequence (P24394 26-232 limits assumed): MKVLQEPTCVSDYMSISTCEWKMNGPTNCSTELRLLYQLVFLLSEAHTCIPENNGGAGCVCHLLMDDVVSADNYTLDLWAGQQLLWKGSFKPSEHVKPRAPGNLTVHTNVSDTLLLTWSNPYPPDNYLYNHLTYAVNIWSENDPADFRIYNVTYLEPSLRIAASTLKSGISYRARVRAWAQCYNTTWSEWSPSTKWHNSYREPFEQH

| Binder | Kd [1] | Kd [2] | fold increase in binding affinity against MAR-IL4 [3] |
| --- | --- | --- | --- |
| RMKQLEKKVERLLKRNYRLENEVARLKKLVG (modifications not checked) [Model 2a] | 2 mM | 2160 µM | – |
| RMKQLEKKVERLLKRNYRLENEVIRLKKLVG (modifications not checked) [Model 2b] | – | 193 µM | – |
| RMKQLEKKVERLLKRNYRLEWEVARLKKLVG (modifications not checked) [Model 2c] | 0.1 mM | 106 µM | – |
| RMKQLEKKVERLLKRNYRLEWEVIRLKKLVG (modifications not checked) [MAR-IL4] | – | 26 µM | – |
| RMKQLEKKVERCLKRNYRLEWEVIRLKKLVG (modifications not checked) [12CMAR-IL4] | – | 5 µM | 5 fold |
| RMKQLEKKVERLLKRNYRLEWEVIRCKKLVG (modifications not checked) [26CMAR-IL4] | – | 5 to 10 µM | 5 fold |
| RMKQLEKKVERCLKRLYRNEWEVIRLKKLVG (modifications not checked) [12CNMAR-IL4] | – | 5 µM | – |
